Experimental data: patent publication US20240067747A1 (SHANGHAI HUAOTA BIOPHARMACEUTICAL, published 2024)
Substitutions are numbered along the chain they refer to.

T1: human CD73 on the cell surface of CHOK1-huCD73-3F4 cells (Huabo Biopharm) (human, UniProt P21589 27-549)
T1 sequence (looked up): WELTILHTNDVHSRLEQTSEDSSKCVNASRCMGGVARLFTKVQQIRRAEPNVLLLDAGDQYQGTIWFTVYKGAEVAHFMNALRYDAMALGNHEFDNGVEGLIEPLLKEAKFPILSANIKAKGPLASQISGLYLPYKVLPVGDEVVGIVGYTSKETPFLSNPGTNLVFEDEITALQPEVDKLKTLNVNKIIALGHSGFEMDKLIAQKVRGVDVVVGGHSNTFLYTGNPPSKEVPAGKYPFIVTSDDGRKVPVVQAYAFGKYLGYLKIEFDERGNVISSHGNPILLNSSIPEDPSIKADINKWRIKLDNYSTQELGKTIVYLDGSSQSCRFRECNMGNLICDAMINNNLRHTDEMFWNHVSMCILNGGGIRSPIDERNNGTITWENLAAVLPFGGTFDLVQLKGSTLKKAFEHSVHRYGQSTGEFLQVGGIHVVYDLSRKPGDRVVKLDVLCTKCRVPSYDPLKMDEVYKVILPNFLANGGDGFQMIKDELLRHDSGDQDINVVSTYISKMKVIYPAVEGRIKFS

T2: Trypsin inhibitor type 1-S from Glycine max (Sigma, T-2327) (Glycine max, UniProt P01070 25-205)
T2 construct: Non-target molecule, amine-coupled to a CM5 chip
T2 sequence (looked up): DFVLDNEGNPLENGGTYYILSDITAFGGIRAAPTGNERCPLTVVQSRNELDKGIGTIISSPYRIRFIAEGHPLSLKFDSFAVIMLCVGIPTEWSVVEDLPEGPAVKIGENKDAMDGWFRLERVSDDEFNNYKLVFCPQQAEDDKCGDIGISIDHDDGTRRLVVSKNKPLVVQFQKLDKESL

T3: Mouse CD73/NT5E protein (ACRO Biosystems, item No. CD3-M52H9) (mouse, UniProt Q61503 29-551)
T3 construct: Bought protein
T3 sequence (looked up): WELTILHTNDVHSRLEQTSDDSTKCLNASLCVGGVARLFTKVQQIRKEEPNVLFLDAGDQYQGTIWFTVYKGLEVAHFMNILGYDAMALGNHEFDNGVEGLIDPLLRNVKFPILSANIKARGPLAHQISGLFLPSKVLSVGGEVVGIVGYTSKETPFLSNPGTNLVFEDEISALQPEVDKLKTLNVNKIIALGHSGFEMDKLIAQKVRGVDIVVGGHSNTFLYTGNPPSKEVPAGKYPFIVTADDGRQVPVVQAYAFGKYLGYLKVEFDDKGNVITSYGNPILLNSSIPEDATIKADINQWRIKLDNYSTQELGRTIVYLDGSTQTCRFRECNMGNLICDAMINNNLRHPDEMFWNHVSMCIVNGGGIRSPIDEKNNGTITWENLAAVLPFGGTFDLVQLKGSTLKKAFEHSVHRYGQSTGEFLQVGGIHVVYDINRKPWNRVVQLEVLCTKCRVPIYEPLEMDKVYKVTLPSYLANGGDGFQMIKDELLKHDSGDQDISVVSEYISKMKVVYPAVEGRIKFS

B1: 900567 (human-mouse chimeric anti-CD73 antigen-binding protein expressed from 124A9 variable regions) (antibody, V domains shown)
VH: QVQLQQPGAELVKPGASVKLSCKASGYTFTSYWIHWVKQRPGQGLDWIGMIHPNSGSTYYNEKFKSKATLTVDKSSSTAYMQLSSLTSEDSAVYYCARYYGSDYEWYFDVWGTGTTVTVSS
VL: DIVMTQSQKFMSTSVGDRVSITCKASQNVRTAVVWYQQNPGQSPKALIYLASNRHTGVPDRFTGSGSGTDFTLTISNVHSEDLADYFCLQHWNYPYTFGGGTKLEIK
B2: 900725 (humanized anti-CD73 antigen-binding protein) (antibody, V domains shown)
VH: QVQLVQSGAEVKKPGASVKLSCKASGYTFTSYWIHWVRQAPGQGLEWIGMIHPNSGSTYYNEKFKGRATLTVDKSTSTAYMELSSLRSEDTAVYYCARYYGSDYEWYFDVWGQGTTVTVSS
VL: DIQMTQSPSSMSASVGDRVTITCKASQNVRTAVVWYQQKPGKAPKALIYLASNRHTGVPDRFSGSGSGTDFTLTISSLQPEDFATYFCLQHWNYPYTFGQGTKLEIK
B3: 900728 (humanized anti-CD73 antigen-binding protein) (antibody, V domains shown)
VH: B2 VH with L20V, K65Q, A68V, L70M
VL: B2 VL with M11L, F87Y
B4: 900727 (humanized anti-CD73 antigen-binding protein) (antibody, V domains shown)
VH: B2 VH with L20V, N61A, E62Q, K65Q, A68V, L70I
VL: B2 VL
B5: 900726 (humanized anti-CD73 antigen-binding protein) (antibody, V domains shown)
VH: B2 VH
VL: B2 VL with M11L, F87Y

molecular target: T1, human CD73 on the cell surface of …; assay: cell-based or functional assay

Row | Binder | EC50 of inhibition of the enzyme activity of CD73 on cell membrane (AMP/ATP, CellTiter-Glo) [µg/mL]
1 | B1 | 0.025
2 | B2 | 0.0697
3 | B3 | 0.0467

molecular target: T2, Trypsin inhibitor type 1-S from Glycine …; assay: SPR, Biacore 8K, trypsin inhibitor immobilized on CM5 chip
Method: (§1) The non-specific adsorption effect of antigen-binding proteins and non-target molecules were determined by using the SPR method.
(§2) The series sensor chip CM5 (GE, #BR-1005-30) was equilibrated at room temperature for 20-30 min and then loaded into the Biacore 8K (GE) instrument. Lysozyme solution (Sigma, #L3790) from egg and trypsin inhibitor type 1-S (Sigma, #T-2327) from Glycine max were immobilized onto the CM5 chip using an amino coupling kit (GE, #BR-1000-50). The injection buffer was HBS-EP (1×) (GE, #BR-1006-69) and four equilibration cycles were set up. The polyclonal rabbit anti-lysozyme (ABcam, Ab391), anti-trypsin inhibitor antibodies (LifeSpan Biosciences, #LS-C76609), chimeric antibodies and humanized antibodies were diluted with equilibration buffer to 1000 nM, and the flow rate was set at 5 μL/min and injection channels 1, 2 and 3, Flow Cell 1 and 2 were selected. The association time was 10 min and the dissociation time was 10 min.

Row | Binder | binding result
4 | B1 | no binding (tested: 1000 nM antibody; 20 RU)
5 | B2 | no binding (tested: 1000 nM antibody; 20 RU)
6 | B3 | no binding (tested: 1000 nM antibody; 20 RU)
7 | B4 | no binding (tested: 1000 nM antibody; 20 RU)
8 | B5 | no binding (tested: 1000 nM antibody; 20 RU)

molecular target: T4, Lysozyme from chicken egg (Sigma, L3790) (chicken, UniProt P00698 19-147); assay: SPR, Biacore 8K, lysozyme immobilized on CM5, antibody at 1000 nM; buffer alone 16.9 RU
T4 construct: Non-target molecule, amine-coupled to a CM5 chip
Method: as §1, §2
The PI of carboxymethyl dextran was 3.5, the PI of the trypsin inhibitor was 4.5, and the PI of lysozyme was 11.3. In the HBS-EP buffer solution with a pH of 7.4, carboxymethyl dextran and the trypsin inhibitor had strong negative charges, and lysozyme had strong positive charges.

T4 sequence (P00698 19-147 limits assumed): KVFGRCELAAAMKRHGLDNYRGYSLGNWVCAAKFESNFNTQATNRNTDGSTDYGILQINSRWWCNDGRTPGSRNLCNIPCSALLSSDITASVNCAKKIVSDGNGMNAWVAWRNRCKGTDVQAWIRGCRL

Row | Binder | non-specific binding amount (RU)
9 | B1 | 15.8
10 | B2 | 20.3
11 | B3 | 20.2
12 | B4 | 17.6
13 | B5 | 17.7

molecular target: T3, Mouse CD73/NT5E protein (ACRO …); assay: SPR, Biacore T200, antibody captured on protein A chip, CD73 as analyte
Method: In the tests, the assay buffer HBS-EP+ (pH 7.4) and the protein A chip (manufacturer: GE, item No.: 29-1275-56) were used.
The temperatures of a sample chamber and a flow path were set at 25° C., and the protein A chip respectively captured antigen-binding proteins as ligands and immobilized at about 100 RU. […] After association for 120 s at a flow rate of 30 μL/min, dissociation was carried out for 600 s. Regeneration was then carried out for 60 s with 10 mM Glycine (pH 1.5) at a flow rate of 50 μL/min to implement multi-cycle kinetic detection. A 1:1 binding model was selected for fitting analysis in a Fit local mode to acquire the association rate constant (ka), dissociation rate constant (kd) and dissociation equilibrium rate constant (KD).

Row | Binder | binding result
14 | B1 | no binding (tested: 50 nM (highest analyte concentration))
15 | B2 | no binding (tested: 50 nM (highest analyte concentration))
16 | B3 | no binding (tested: 50 nM (highest analyte concentration))
17 | B4 | no binding (tested: 50 nM (highest analyte concentration))
18 | B5 | no binding (tested: 50 nM (highest analyte concentration))
